Assay results from patent USRE46585 (LABORATOIRE FRANCAIS DU FRACTIONNEMENT ET DES …, dated 2017).
Positions count from the first letter of the chain named.

B1: T3A_11 (other)
chain: CPPCPAPELLGGPSVFLFPPKPKDTLMISRTPEVTCVVVDVSHEDPEVKFNWYVDGVEVHNAKTKSREEQYNSTYRVVSVLTVLHQDWLDGKEYKCKVSNKVLPVPIEKTISKAKGQPREPQVYTLPPSRDELTKNQVSLTCLVKGFYPSDIAVEWESNGQPENNYKTTPPVLDSDGSFFLYSKLTVDKSRWQQGNVFSCSVMHEALHYHYTQKSLSLSPGK
notes: EU numbering
B2: T3A_47 (other)
chain: B1 chain with S66P, T82P, D90N, V102A, V105A, A153T, V172M, Y209N
notes: EU numbering
B3: T3A_22 (other)
chain: B1 chain with F16L, V39E, S66P, D90N, V102A, V105A, A153V, Y209S
notes: EU numbering
B4: T7A_48 (other)
chain: B1 chain with P5T, L9R, S66P, V102A
notes: EU numbering
B5: T6A_13 (other)
chain: B1 chain with P5T, S66P, V102A, Q137R
notes: EU numbering
B6: T7A_17 (other)
chain: B1 chain with V39E, D90N, V102A, V105A, Q137R, A153V
notes: EU numbering
B7: T4A_19 (other)
chain: B1 chain with S66P, T82P, D90N, V102A, V105A, A153V, Y209S
notes: EU numbering
B8: T5A_52 (other)
chain: B1 chain with S66P
notes: EU numbering
B9: T5A_51 (other)
chain: B1 chain with V39E, S66P, D90N, V102A, V105A, A153V, F179L, Y209S
notes: EU numbering
B10: T7A_35 (other)
chain: B1 chain with S66P, V102A, V105A, Q137R, S219P
notes: EU numbering
B11: T4A_31 (other)
chain: B1 chain with P5T, F16L, V39E, S66P, T82P, D90N, V102A, V105A, A153V, Y209N
notes: EU numbering
B12: T5A_40 (other)
chain: B1 chain with P5T, V39E, S66P, T82P, D90N, V102A, V105A, A153V, N196T, Y209N
notes: EU numbering
B13: T3A_13 (other)
chain: B1 chain with S66P, V102A, V105A, V144A
notes: EU numbering
B14: T4A_26 (other)
chain: B1 chain with V39E, S66P, T82P, D90N, V102A, V105A, A153V, E157G, Q161R, Y209N
notes: EU numbering
B15: T3A_43 (other)
chain: B1 chain with V39E, S66P, D90N, V102A, V105A, E120G, A153V, Y209N
notes: EU numbering
B16: T4A_43 (other)
chain: B1 chain with S66P, D90N, V102A, V105A, I107V, K145R, A153V, Y209S
notes: EU numbering
B17: T7A_49 (other)
chain: B1 chain with P5T, S66P, K95E, V102A, V105A, Q137R
notes: EU numbering
B18: T3A_16 (other)
chain: B1 chain with F16L, V39E, S66P, T82P, D90N, V102A, V105A, A153V, Y209N
notes: EU numbering
B19: T6A_93 (other)
chain: B1 chain with S66P, T74K, Q86R, V102A, V105A
notes: EU numbering
B20: T4A_34 (other)
chain: B1 chain with V39E, S66P, D90N, V102A, V105A, A153V, Q193K, Y209N
notes: EU numbering
B21: T5A_28 (other)
chain: B1 chain with F16L, V39E, S66P, D90N, V102A, V105A, A153V
notes: EU numbering
B22: T7A_46 (other)
chain: B1 chain with V39E, S66P, D90N, V102A, V105A, A153V, G160R, Y209S
notes: EU numbering
B23: T3A_30 (other)
chain: B1 chain with V39E, S66P, D90N, V102A, V105A, A153V, V197A, Y209N
notes: EU numbering
B24: T4A_32 (other)
chain: B1 chain with V39E, S66P, D90N, V102A, V105A, A153V, H208R, Y209N
notes: EU numbering
B25: T5A_90 (other)
chain: B1 chain with S66P, V102A, K167R, S199L
notes: EU numbering
B26: T3A_41 (other)
chain: B1 chain with V39E, S66P, T82P, D90N, V102A, V105A, A153V, Y209N
notes: EU numbering
B27: T5A_29 (other)
chain: B1 chain with S66P, V102A, V105A, E157V
notes: EU numbering
B28: T3A_34 (other)
chain: B1 chain with V39E, S66P, D90N, V102A, V105A, P127S, A153V, Y209N
notes: EU numbering
B29: T5A_59 (other)
chain: B1 chain with S66P, D90N, V102A, V105A, Q117R, R130G, E157V
notes: EU numbering
B30: T6A_40 (other)
chain: B1 chain with P5A, F16L, V39E, S66P, D90N, V102A, V105A, A153V, N196T, Y209N
notes: EU numbering
B31: T7A_18 (other)
chain: B1 chain with V39E, S66P, D90N, V102A, V105A, A153V, Q161R, Y209S
notes: EU numbering
B32: T4A_46 (other)
chain: B1 chain with P5T, S66P, D90N, V102A, V105A, N164K
notes: EU numbering
B33: T5A_37 (other)
chain: B1 chain with S66P, S73G, V102A
notes: EU numbering
B34: T4A_39 (other)
chain: B1 chain with V39E, S66P, D90N, V102A, V105A, A153V, P171L, Y209N
notes: EU numbering
B35: T4A_45 (other)
chain: B1 chain with V39E, S66P, L84P, D90N, V102A, V105A, P171L, Y209S
notes: EU numbering
B36: T3A_15 (other)
chain: B1 chain with V39E, S66P, D90N, V102A, V105A, A153V, T169A, F179L, Y209S
notes: EU numbering
B37: T6A_47 (other)
chain: B1 chain with P5T, S66P, D90N, K95T, V102A, V105A
notes: EU numbering
B38: T4A_41 (other)
chain: B1 chain with F16R, V39E, S66P, T82P, D90N, V102A, V105A, A153V, Y209N
notes: EU numbering
B39: T4A_18 (other)
chain: B1 chain with S66P, V102A, V105A, Q117R, E157V
notes: EU numbering
B40: T5A_03 (other)
chain: B1 chain with V39E, S66P, D90N, V102A, V105A, P171L, Y209S
notes: EU numbering
B41: T4A_04 (other)
chain: B1 chain with S66P, V102A, E157V
notes: EU numbering
B42: T5A_44 (other)
chain: B1 chain with F16L, V39E, S66P, T82P, D90N, V102A, V105A, A153T, V172M, Y209N
notes: EU numbering
B43: T4A_44 (other)
chain: B1 chain with C1G, V39E, S66P, D90N, V102A, V105A, A153V, F179L, Y209N
notes: EU numbering
B44: T5A_05 (other)
chain: B1 chain with V39E, E44G, S66P, D90N, V102A, V105A, A153V, N196T, Y209S
notes: EU numbering
B45: T7A_24 (other)
chain: B1 chain with V39E, S66P, D90N, V102A, V105A, A153V, N196T
notes: EU numbering

Assays:
[1] = molecular target: T1, FcRn-p3 fusion protein (human, UniProt P55899 24-297; P61769 21-119); test: phage ELISA pH6
T1 construct: baculovirus expressed; coated on ELISA wells; not shown: amino terminal part of bacteriophage p3 protein and CVDE protein

[2] = molecular target: T1, FcRn-p3 fusion protein; test: phage ELISA pH6 (est.)

T1 sequence (P55899 24-297, chain 1 of 2): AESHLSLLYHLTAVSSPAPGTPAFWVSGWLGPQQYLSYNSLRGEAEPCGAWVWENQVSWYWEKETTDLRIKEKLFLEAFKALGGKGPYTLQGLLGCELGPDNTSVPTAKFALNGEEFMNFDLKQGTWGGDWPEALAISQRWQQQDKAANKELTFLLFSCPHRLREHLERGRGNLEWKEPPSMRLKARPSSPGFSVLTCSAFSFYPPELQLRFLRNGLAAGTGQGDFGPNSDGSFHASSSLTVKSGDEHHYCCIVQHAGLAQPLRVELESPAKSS
T1 sequence (P61769 21-119, chain 2 of 2): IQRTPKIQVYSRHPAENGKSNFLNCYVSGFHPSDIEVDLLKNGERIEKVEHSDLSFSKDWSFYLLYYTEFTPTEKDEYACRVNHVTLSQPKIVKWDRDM

Row | Binder | Ratio/Fc-H [1] [fold] | Ratio/FWT [2] [fold]
1 | B1 | 1.3 | 4
2 | B2 | 2 | 6.3
3 | B3 | 3.8 | 12.2
4 | B4 | 3.6 | 11.6
5 | B5 | 2.9 | 9.3
6 | B6 | 2 | 6.3
7 | B7 | 3.6 | 11.4
8 | B8 | 1.9 | 5.9
9 | B9 | 2.8 | 9
10 | B10 | 1.7 | 5.4
11 | B11 | 3.7 | 11.7
12 | B12 | 3.4 | 10.8
13 | B13 | 1.8 | 5.6
14 | B14 | 3.6 | 11.5
15 | B15 | 1.4 | 4.5
16 | B16 | 2 | 6.3
17 | B17 | 3.6 | 11.6
18 | B18 | 2.3 | 7.4
19 | B19 | 1.1 | 3.5
20 | B20 | 1.3 | 4.3
21 | B21 | 2.5 | 7.9
22 | B22 | 2.6 | 8.2
23 | B23 | 1.1 | 3.4

Row | Binder | Ratio/Fc-H [1] [fold] | Ratio/FWT [2] [fold]
24 | B24 | 2.3 | 7.4
25 | B25 | 1.8 | 5.7
26 | B26 | 2.3 | 7.2
27 | B27 | 1.9 | 6
28 | B28 | 1.4 | 4.6
29 | B29 | 2.4 | 7.8
30 | B30 | 2.8 | 9.1
31 | B31 | 2.8 | 8.9
32 | B32 | 3.6 | 11.4
33 | B33 | 2.2 | 7
34 | B34 | 1.4 | 4.4
35 | B35 | 2.7 | 8.7
36 | B36 | 2.8 | 8.9
37 | B37 | 2.8 | 9.1
38 | B38 | 2.5 | 8
39 | B39 | 3 | 9.7
40 | B40 | 2 | 6.4
41 | B41 | 3 | 9.7
42 | B42 | 1.2 | 3.8
43 | B43 | 3.8 | 12
44 | B44 | 2.7 | 8.8
45 | B45 | 2.3 | 7.2
